For assay [1], the target named is proGeh (glycerol ester hydrolase, pro form) (S. aureus). The assay can be described thus: SEC; analytical gel filtration column (HiLoad 13/300 Super 200); molecular weight estimated from a standard curve (thyroglobulin, ferritin, aldolase, conalbumin, ovalbumin, RNase A, aprotinin).
Assay [2] concerns the target mature Geh (mGeh) (S. aureus). The assay is described as above.

As a reminder, the stoichiometry N is the number of molecules, sites or subunits per partner or assembly.

For the substance “proGeh (glycerol ester hydrolase, pro form) (from UniProt A0A1R3UHM3 38-645) (enzyme)”, in assay [1], the stoichiometry N is 2.
Consider mature Geh (mGeh) (enzyme), for which the stoichiometry N in assay [2] was 2.

(Values after publication PMC10117073.)
